The data set addresses T1, BnaA01G0374400ZS (MYB TF, ortholog of AT3G11280) (Brassica napus (ZS11), UniProt A0A078HEX6 1-259).
T1 sequence: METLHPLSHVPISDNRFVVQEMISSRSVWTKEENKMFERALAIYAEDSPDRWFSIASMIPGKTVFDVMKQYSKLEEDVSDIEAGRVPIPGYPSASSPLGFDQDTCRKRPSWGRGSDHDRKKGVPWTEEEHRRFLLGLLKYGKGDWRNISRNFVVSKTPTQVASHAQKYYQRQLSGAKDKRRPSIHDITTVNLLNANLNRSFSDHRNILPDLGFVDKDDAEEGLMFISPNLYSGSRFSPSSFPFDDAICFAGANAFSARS
As to the kind of experiment: EMSA; Beyotime GS009 EMSA kit, room temperature, 20 min, 5% native polyacrylamide gel, chemiluminescent detection; buffer, salt and pH not stated. Conditions: protein: recombinant; tags: His; label: biotin; blunt. A general note: A gel shift assay detects complexes by their altered migration in electrophoresis.

B1: M2 (M1 with all C nucleotides mutated) (dsDNA)
DNA 1: TTTTTTTATTTATATTAAATTTATT
DNA 2: AATAAATTTAATATAAATAAAAAAA
As for B1, the binding result is “no binding”.

These data come from PMC12822431, “A Pan‐TE Map Reveals the Important Role of Transposable Elements in Gene Expression and Phenotypic Diversity in 2,311 Rapeseed Accessions”.
